Results published in article PMC12866175 (European journal of nuclear medicine and molecular imaging, 2021).

System: non-tumor-bearing BALB/c mice
Test: Toxicity, single intravenous injection, 5 months
Format: in vivo

SMILES: C[C@@H](O)[C@H](NC(=O)[C@@H]1CSSC[C@H](NC(=O)[C@@H](Cc2ccccc2)NC(=O)CN2CCN(CC(=O)O)CCN(CC(=O)O)CCN(CC(=O)O)CC2)C(=O)N[C@@H](Cc2ccc(O)cc2)C(=O)N[C@H](Cc2c[nH]c3ccccc23)C(=O)N[C@@H](CCCCN)C(=O)N[C@@H]([C@@H](C)O)C(=O)N1)C(=O)O [[^225Ac]Ac-DOTA-TATE, metal not drawn]
- ALKP among the cohorts (mouse, in vivo): No significant differences
- ALT among the cohorts (mouse, in vivo): No significant differences
- AST among the cohorts (mouse, in vivo): No significant differences
- Blood BUN (mouse, in vivo): in the normal range
- Blood creatinine (mouse, in vivo): in the normal range
- acute kidney damage by pathology (mouse, in vivo): no acute kidney damage
- damage in the liver or other tissues by pathology (mouse, in vivo): no treatment related damage
- survival (to 5 months p.i.): all animals survived
